Source: paper PMC11838001

Molecular target: E-cadherin (human (endogenous in NHEK))
Experiment: FRET or BRET; FLIM-FRET in fixed, permeabilized NHEK cells, untreated or treated with 6 μM CHIR99021 for 48 hours; β-catenin labelled by antibodies as donor (Alexa Fluor 488), E-cadherin as acceptor (Alexa Fluor 555); FRET efficiency from regions at cell-cell junctions, dual exponential fit

Chain of E-cadherin (human (endogenous in NHEK)) (P12830 23-882): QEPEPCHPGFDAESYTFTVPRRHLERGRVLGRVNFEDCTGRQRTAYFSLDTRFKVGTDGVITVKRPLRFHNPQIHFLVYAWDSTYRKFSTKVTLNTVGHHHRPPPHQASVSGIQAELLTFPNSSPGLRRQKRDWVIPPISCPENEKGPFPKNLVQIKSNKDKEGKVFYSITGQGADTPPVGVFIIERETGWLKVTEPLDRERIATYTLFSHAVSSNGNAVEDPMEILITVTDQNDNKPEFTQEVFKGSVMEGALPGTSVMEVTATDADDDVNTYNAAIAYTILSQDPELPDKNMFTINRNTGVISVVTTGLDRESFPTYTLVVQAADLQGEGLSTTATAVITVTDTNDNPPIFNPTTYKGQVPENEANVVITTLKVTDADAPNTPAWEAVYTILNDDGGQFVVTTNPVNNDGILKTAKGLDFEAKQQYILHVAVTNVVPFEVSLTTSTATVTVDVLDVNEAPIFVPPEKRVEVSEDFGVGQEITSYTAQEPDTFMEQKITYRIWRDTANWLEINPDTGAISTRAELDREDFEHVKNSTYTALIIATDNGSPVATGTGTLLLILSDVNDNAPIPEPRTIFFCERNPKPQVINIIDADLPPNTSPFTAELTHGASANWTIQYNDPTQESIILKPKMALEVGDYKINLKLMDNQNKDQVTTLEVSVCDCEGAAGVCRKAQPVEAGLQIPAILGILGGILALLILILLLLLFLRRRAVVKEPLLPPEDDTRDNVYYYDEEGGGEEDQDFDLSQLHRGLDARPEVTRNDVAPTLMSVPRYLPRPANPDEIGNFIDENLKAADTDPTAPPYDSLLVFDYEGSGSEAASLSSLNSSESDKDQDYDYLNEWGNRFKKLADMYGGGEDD
Chain of β-catenin (P35222 whole entry): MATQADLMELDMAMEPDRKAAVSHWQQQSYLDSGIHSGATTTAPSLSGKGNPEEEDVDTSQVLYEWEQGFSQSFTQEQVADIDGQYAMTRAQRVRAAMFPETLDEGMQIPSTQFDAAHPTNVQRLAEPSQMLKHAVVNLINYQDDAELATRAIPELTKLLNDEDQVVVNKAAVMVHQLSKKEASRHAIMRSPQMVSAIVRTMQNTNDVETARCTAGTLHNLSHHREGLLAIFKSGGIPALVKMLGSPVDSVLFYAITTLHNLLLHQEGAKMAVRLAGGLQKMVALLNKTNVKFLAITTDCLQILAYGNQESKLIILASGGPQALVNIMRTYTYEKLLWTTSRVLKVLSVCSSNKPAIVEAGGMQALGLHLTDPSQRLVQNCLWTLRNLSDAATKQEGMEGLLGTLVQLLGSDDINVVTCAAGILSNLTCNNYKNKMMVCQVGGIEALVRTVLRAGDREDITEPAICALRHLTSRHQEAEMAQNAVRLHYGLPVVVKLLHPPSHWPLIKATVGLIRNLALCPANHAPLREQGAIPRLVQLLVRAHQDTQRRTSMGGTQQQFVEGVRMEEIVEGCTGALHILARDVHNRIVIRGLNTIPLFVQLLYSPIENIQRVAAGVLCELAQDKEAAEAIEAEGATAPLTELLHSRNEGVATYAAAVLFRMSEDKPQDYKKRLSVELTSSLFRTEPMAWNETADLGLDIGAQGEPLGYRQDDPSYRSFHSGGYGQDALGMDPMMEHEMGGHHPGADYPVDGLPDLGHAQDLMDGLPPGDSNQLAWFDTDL

- fold change of FRET efficiency, CHIR-treated against untreated cells: 3 fold
Substance: β-catenin (from UniProt P35222 1-781) (natural protein)
